Test [1] has as its target TSH receptor coated onto plastic tubes (UniProt P16473). The test is described as follows: TSHR coated tubes; 9D33 IgG 0.01 µg/mL; competitor 125I-hMAb TSHR1.
Test [2] shares this target. Put plainly: TSHR coated tubes; 9D33 IgG 0.1 µg/mL; competitor 125I-hMAb TSHR1.
Test [3] has the same target. The test is described as follows: TSHR coated tubes; 9D33 IgG 0.01 µg/mL; competitor 125I-TSH.
The target is the same in test [4]. Put plainly: 125I-9D33 binding to TSHR coated tubes in the pool of healthy blood donor sera.
For test [5] the target is unchanged. Put plainly: TSHR coated tubes; 9D33 IgG 0.1 µg/mL; competitor 125I-9D33.
For test [6] the target is unchanged. The test is described as follows: TSHR coated tubes; 9D33 IgG 0.001 µg/mL; competitor 125I-hMAb TSHR1.
Test [7] shares this target. Put plainly: TSHR coated tubes; 9D33 IgG 1 µg/mL; competitor 125I-TSH.
Test [8] has the same target. The test is described as follows: TSHR coated tubes; 9D33 IgG 0.1 µg/mL; competitor 125I-TSH.
The target is the same in test [9]. Put plainly: TSHR coated tubes; 9D33 IgG 10 µg/mL; competitor 125I-TSH.
Test [10] has the same target. Put plainly: TSHR coated tubes; 9D33 IgG 0.01 µg/mL; competitor 125I-9D33.
For test [11] the target is unchanged. Put plainly: 125I-9D33 binding to TSHR coated tubes in the pool of healthy blood donor sera, no 90/672.
The target is the same in test [12]. The test is described as follows: TSHR coated tubes; 9D33 IgG 10 µg/mL; competitor 125I-9D33.
For test [13] the target is unchanged. The test is described as follows: TSHR coated tubes; 9D33 IgG 1 µg/mL; competitor 125I-hMAb TSHR1.
For test [14] the target is unchanged. The test is described as follows: TSHR coated tubes; 9D33 IgG 0.001 µg/mL; competitor 125I-TSH.
The target is the same in test [15]. Put plainly: TSHR coated tubes; 9D33 IgG 0.001 µg/mL; competitor 125I-9D33.
For test [16] the target is unchanged. The test is described as follows: TSHR coated tubes; 9D33 IgG 1 µg/mL; competitor 125I-9D33.
The target is the same in test [17]. Put plainly: TSHR coated tubes; 9D33 IgG 10 µg/mL; competitor 125I-hMAb TSHR1.
Test [18] deals with human TSH receptor on CHO cells (human) (UniProt P16473). The test is described as follows: cell-based or functional assay.
Test [19] has the same target. The test is described as follows: cell-based or functional assay. The source holds these as a separate data set.

Where “and” joins values, the source holds several entries; their conditions need not be identical. Identical values can stand only once. Like-named read-outs stand apart in the source and are kept apart here.

B1: 9D33 IgG (mouse monoclonal antibody to the TSHR) (antibody, V domains shown)
VH: DVQIQQPGTELVKPGASVRLSCKASGYTFTTYWMHWVKQRPGQGLEWIGEIDPSDSYTNYNQKFKGKATLTVDKSSSTAYMHLSSLTSEDSAVYYCSRNYGSGYYFDYWGQGTTLTVSS
VL: GVEMTQSPAIMSASPGEKVTMTCSASSSVSYMHWYQQKSGTSPKRWIYDTSKLASGVPARFSGSGSGTSYSLTISSMETEDAATYYCQQWSSNPWTFGGGTKLEIK
B1: the inhibition of 125I-hMAb TSHR1 binding in [1] came out at 3%; in test [2] it was 21%; in test [6], 0%; in test [13], 44%; in test [17], 56%. Moreover, the inhibition of 125I-TSH binding in test [3] is 17%; in [7], 58%; in test [8], 34%; in test [9] it was 68%; in [14], 0%. In addition, the results for the 125I-9D33 bound (% total counts added) in test [4] and in test [11] were 11% and 15%, respectively. Further, the inhibition of 125I-9D33 binding was 35% in [5]; 9% in [10]; 71% in test [12]; 4% in [15]; 64% in test [16].

B2: 2B4 IgG (mouse monoclonal antibody to the TSHR) (antibody, from another filing, V domains shown)
VH: DVQLQQSGTVLARPGASVRMSCKASGYSFTRYWIHWLKQRPGQGLEWIGAIFPGNRDTSYNQRFKGKAEVTAVTSASTAYLDLSSLTNEDSAVYYCTRWPYYGSIYVNFDYWGQGTTLTVSS
VL: DIVMTQSPLSLPVSLGDQASISCRTSQNLVHRNGNTYLHWYLQKPGQSPKLLIYKISNRFSGVPDRFSGSGSGTDFTLKISRVEAEDLGVYFCSQGTHVPPTFGGGTKLEIKR
Consider B2, for which, in test [18], the mean pmol cyclic AMP/cell well; 2B4 IgG 100 µg/mL alone (pmol/cell well) was 0.49; the mean pmol cyclic AMP/cell well; pTSH 0.5 ng/mL plus 2B4 IgG 100 µg/mL (pmol/cell well) was found to be 0.78; the pmol cyclic AMP/cell well; 2B4 IgG 100 µg/mL alone (pmol/cell well) was 0.446 and 0.486 and 0.552; the pmol cyclic AMP/cell well; pTSH 0.5 ng/mL plus 2B4 IgG 100 µg/mL (pmol/cell well) was 0.878 and 0.71 and 0.742. Further, in [18], the x basal stimulation; 2B4 IgG 100 µg/mL alone is 1.4 x basal and the x basal stimulation; pTSH 0.5 ng/mL plus 2B4 IgG 100 µg/mL was found to be 2.3 x basal. In [19], the mean pmol cyclic AMP/cell well; 2B4 IgG 100 µg/mL alone (pmol/cell well) stood at 0.331; the mean pmol cyclic AMP/cell well; hMAb TSHR1 Fab 5 ng/mL plus 2B4 IgG 100 µg/mL (pmol/cell well) came to 2.94; the pmol cyclic AMP/cell well; 2B4 IgG 100 µg/mL alone (pmol/cell well) was 0.298 and 0.318 and 0.376; the pmol cyclic AMP/cell well; hMAb TSHR1 Fab 5 ng/mL plus 2B4 IgG 100 µg/mL (pmol/cell well) was 3.32 and 2.63 and 2.86. Moreover, in test [19], the x basal stimulation; 2B4 IgG 100 µg/mL alone was determined as 0.46 x basal and the x basal stimulation; hMAb TSHR1 Fab 5 ng/mL plus 2B4 IgG 100 µg/mL was 4 x basal.

The record behind these values is patent publication US20060241289A1.
